Reference: patent CN110577594A (UNIV NORTHWEST A&F, dated 2019)

Assays:
金黄色葡萄球菌肠毒素B = molecular target: T1, 金黄色葡萄球菌肠毒素B (Staphylococcus aureus, UniProt P01552 28-266); assay: direct ELISA, antigen coated, HRP-conjugated nanobody
T1 sequence: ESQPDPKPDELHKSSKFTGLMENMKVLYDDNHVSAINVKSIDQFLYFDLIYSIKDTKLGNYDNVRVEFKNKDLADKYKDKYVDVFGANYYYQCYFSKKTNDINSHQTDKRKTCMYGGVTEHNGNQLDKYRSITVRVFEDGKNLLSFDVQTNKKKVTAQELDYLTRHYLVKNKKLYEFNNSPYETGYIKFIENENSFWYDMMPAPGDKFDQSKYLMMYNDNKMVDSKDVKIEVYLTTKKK

金黄色葡萄球菌表面蛋白A = molecular target: T2, 金黄色葡萄球菌表面蛋白A (Staphylococcus aureus, UniProt P38507 37-477); assay: direct ELISA on coated whole S. aureus (ATCC25923, ATCC29213, ATCC26111), HRP-conjugated nanobody
T2 construct: whole, on cells; also called 葡萄球菌蛋白A; spA

B1: 金黄色葡萄球菌肠毒素A纳米抗体A21 (VHH)
VHH: ESGGGSVQAGGSLRLSCAASRNTYSYCSMGWYRQAPGKERELVSSIKSDDRTVYADSVKGRFTISRGNAKNTVHLLMNSLKPEDTAMYYCTFRCLERSGGETRYWGQGTQVTVS
notes: also called Clone A21; A21克隆
- binding result (金黄色葡萄球菌肠毒素B): no binding (tested: 500ng/mL)
- binding result (金黄色葡萄球菌表面蛋白A): no binding (tested: 10 7 cfu/mL)
